Laboratory results as given in the supplement of paper PMC5998384.

Tests used:
[1] = system: HeLa Kyoto; test: solubility in G1/S (NP-40 vs SDS abundance) (log2 ratio); higher = more soluble; conditions: cell cycle stage: G1/S
[2] = system: HeLa Kyoto; test: solubility change mitosis vs G1/S (difference of NP-40 vs SDS log2 ratios) (log2 ratio difference); higher = more soluble in mitosis
[3] = system: HeLa Kyoto; test: thermal stability score vs G1/S (z-score of summed log2 fold changes over temperatures); higher = more thermally stable than in G1/S
[4] = system: HeLa Kyoto; test: melting temperature (median over replicates), in situ; higher = more thermally stable
[5] = cell cycle stage: early G1 (4.5 h after nocodazole release)
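Throughout, for melting temperature (median over replicates), in situ: HeLa Kyoto cells synchronized by double thymidine or nocodazole block, proteins quantified by TMT10plex mass spectrometry, three independent biological replicates.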
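Throughout, for solubility change mitosis vs G1/S (difference of NP-40 vs SDS log2 ratios): synchronized HeLa Kyoto cells (double thymidine block for G1/S, nocodazole release for mitosis), protein amounts in NP-40 versus SDS lysates quantified by mass spectrometry, three biological replicates.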
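Throughout, for solubility in G1/S (NP-40 vs SDS abundance): HeLa Kyoto cells arrested at G1/S by double thymidine block, proteins quantified by TMT10plex mass spectrometry in mild NP-40 versus SDS extracts, three biological replicates.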
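Throughout, for thermal stability score vs G1/S (z-score of summed log2 fold changes over temperatures): synchronized HeLa Kyoto cells, proteins quantified by TMT10plex mass spectrometry, three biological replicates, mitosis taken 0.5 h after nocodazole release, G1/S directly after double thymidine block.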

| Sequence | solubility in G1/S (log2) [1] | solubility change mitosis (log2) [2] | thermal stability score [3, 5] | thermal stability score ([3]; cell cycle stage: mitosis) | melting temperature ([4]; cell cycle stage: G1/S) [°C] | melting temperature ([4]; cell cycle stage: mitosis) [°C] |
| --- | --- | --- | --- | --- | --- | --- |
| MKVHMHTKFCLICLLTFIFHHCNHCHEEHDHGPEALHRQHRGMTELEPSKFSKQAAENEKKYYIEKLFERYGENGRLSFFGLEKLLTNLGLGERKVVEINHEDLGHDHVSHLDILAVQEGKHFHSHNHQHSHNHLNSENQTVTSVSTKRNHKCDPEKETVEVSVKSDDKHMHDHNHRLRHHHRLHHHLDHNNTHHFHNDSITPSERGEPSNEPSTETNKTQEQSDVKLPKGKRKKKGRKSNENSEVITPGFPPNHDQGEQYEHNRVHKPDRVHNPGHSHVHLPERNGHDPGRGHQDLDPDNEGELRHTRKREAPHVKNNAIISLRKDLNEDDHHHECLNVTQLLKYYGHGANSPISTDLFTYLCPALLYQIDSRLCIEHFDKLLVEDINKDKNLVPEDEANIGASAWICGIISITVISLLSLLGVILVPIINQGCFKFLLTFLVALAVGTMSGDALLHLLPHSQGGHDHSHQHAHGHGHSHGHESNKFLEEYDAVLKGLVALGGIYLLFIIEHCIRMFKHYKQQRGKQKWFMKQNTEESTIGRKLSDHKLNNTPDSDWLQLKPLAGTDDSVVSEDRLNETELTDLEGQQESPPKNYLCIEEEKIIDHSHSDGLHTIHEHDLHAAAHNHHGENKTVLRKHNHQWHHKHSHHSHGPCHSGSDLKETGIANIAWMVIMGDGIHNFSDGLAIGAAFSAGLTGGISTSIAVFCHELPHELGDFAVLLKAGMTVKQAIVYNLLSAMMAYIGMLIGTAVGQYANNITLWIFAVTAGMFLYVALVDMLPEMLHGDGDNEEHGFCPVGQFILQNLGLLFGFAIMLVIALYEDKIVFDIQF [SLC39A10] | -0.0606 | -0.0208 | -2.73 | -0.381 | 59.3 | 59 |
| MKVNRETKRLYVGGLSQDISEADLQNQFSRFGEVSDVEIITRKDDQGNPQKVFAYINISVAEADLKKCMSVLNKTKWKGGTLQIQLAKESFLHRLAQEREAAKAKKEESTTGNANLLEKTGGVDFHMKAVPGTEVPGHKNWVVSKFGRVLPVLHLKNQHKRKIIKYDPSKYCHNLKKIGEDFSNTIPISSLTWELEGGNDPMSKKRRGEFSDFHGPPKKIIKVQKDESSTGSLAMSTRPRRVIERPPLTQQQAAQKRTCDSITPSKSSPVPVSDTQKLKNLPFKTSGLETAKKRNSISDDDTDSEDELRMMIAKEENLQRTTQPSINESESDPFEVVRDDFKSGVHKLHSLIGLGIKNRVSCHDSDDDIMRNDREYDSGDTDEIIAMKKNVAKVKNSTEFSQMEKSTKKTSFKNRENCELSDHCIKLQKRKSNVESALSHGLKSLNRKSPSHSSSSEDADSASELADSEGGEEYNAMMKNCLRVNLTLADLEQLAGSDLKVPNEDTKSDGPETTTQCKFDRGSKSPKTPTGLRRGRQCIRPAEIVASLLEGEENTCGKQKPKENNLKPKFQAFKGVGCLYEKESMKKSLKDSVASNNKDQNSMKHEDPSIISMEDGSPYVNGSLGEVTPCQHAKKANGPNYIQPQKRQTTFESQDRKAVSPSSSEKRSKNPISRPLEGKKSLSLSAKTHNIGFDKDSCHSTTKTEASQEERSDSSGLTSLKKSPKVSSKDTREIKTDFSLSISNSSDVSAKDKHAEDNEKRLAALEARQKAKEVQKKLVHNALANLDGHPEDKPTHIIFGSDSECETEETSTQEQSHPGEEWVKESMGKTSGKLFDSSDDDESDSEDDSNRFKIKPQFEGRAGQKLMDLQSHFGTDDRFRMDSRFLETDSEEEQEEVNEKKTAEEEELAEEKKKALNVVQSVLQINLSNSTNRGSVAAKKFKDIIHYDPTKQDHATYERKRDDKPKESKAKRKKKREEAEKLPEVSKEMYYNIAMDLKEIFQTTKYTSEKEEGTPWNEDCGKEKPEEIQDPAALTSDAEQPSGFTFSFFDSDTKDIKEETYRVETVKPGKIVWQEDPRLQDSSSEEEDVTEETDHRNSSPGEASLLEKETTRFFFFSKNDERLQGSDLFWRGVGSNMSRNSWEARTTNLRMDCRKKHKDAKRKMKPK [NOL8] | -1.85 | 1.08 | 1.32 | 2.26 | 51.3 | 51.3 |
| MKYILVTGGVISGIGKGIIASSVGTILKSCGLHVTSIKIDPYINIDAGTFSPYEHGEVFVLDDGGEVDLDLGNYERFLDIRLTKDNNLTTGKIYQYVINKERKGDYLGKTVQVVPHITDAIQEWVMRQALIPVDEDGLEPQVCVIELGGTVGDIESMPFIEAFRQFQFKVKRENFCNIHVSLVPQPSSTGEQKTKPTQNSVRELRGLGLSPDLVVCRCSNPLDTSVKEKISMFCHVEPEQVICVHDVSSIYRVPLLLEEQGVVDYFLRRLDLPIERQPRKMLMKWKEMADRYDRLLETCSIALVGKYTKFSDSYASVIKALEHSALAINHKLEIKYIDSADLEPITSQEEPVRYHEAWQKLCSAHGVLVPGGFGVRGTEGKIQAIAWARNQKKPFLGVCLGMQLAVVEFSRNVLGWQDANSTEFDPTTSHPVVVDMPEHNPGQMGGTMRLGKRRTLFQTKNSVMRKLYGDADYLEERHRHRFEVNPVWKKCLEEQGLKFVGQDVEGERMEIVELEDHPFFVGVQYHPEFLSRPIKPSPPYFGLLLASVGRLSHYLQKGCRLSPRDTYSDRSGSSSPDSEITELKFPSINHD [CTPS1] | -0.00383 | -0.0782 | 0.505 | -2.34 | 55.3 | 55.3 |
| MLADLGLIGTIGEDDEVPVEPESDSGDEEEEGPIVLGRRQKALGKNRSADFNPDFVFTEKEGTYDGSWALADVMSQLKKKRAATTLDEKIEKVRKKRKTEDKEAKSGKLEKEKEAKEGSEPKEQEDLQENDEEGSEDEASETDYSSADENILTKADTLKVKDRKKKKKKGQEAGGFFEDASQYDENLSFQDMNLSRPLLKAITAMGFKQPTPIQKACIPVGLLGKDICACAATGTGKTAAFALPVLERLIYKPRQAPVTRVLVLVPTRELGIQVHSVTRQLAQFCNITTCLAVGGLDVKSQEAALRAAPDILIATPGRLIDHLHNCPSFHLSSIEVLILDEADRMLDEYFEEQMKEIIRMCSHHRQTMLFSATMTDEVKDLASVSLKNPVRIFVNSNTDVAPFLRQEFIRIRPNREGDREAIVAALLTRTFTDHVMLFTQTKKQAHRMHILLGLMGLQVGELHGNLSQTQRLEALRRFKDEQIDILVATDVAARGLDIEGVKTVINFTMPNTIKHYVHRVGRTARAGRAGRSVSLVGEDERKMLKEIVKAAKAPVKARILPQDVILKFRDKIEKMEKDVYAVLQLEAEEKEMQQSEAQINTAKRLLEKGKEAVVQEPERSWFQTKEERKKEKIAKALQEFDLALRGKKKRKKFMKDAKKKGEMTAEERSQFEILKAQMFAERLAKRNRRAKRARAMPEEEPVRGPAKKQKQGKKSVFDEELTNTSKKALKQYRAGPSFEERKQLGLPHQRRGGNFKSKSRYKRRK [DDX27] | -2.35 | 1.15 | 1.57 | 2.15 | 52.4 | 52.2 |
| MLALISRLLDWFRSLFWKEEMELTLVGLQYSGKTTFVNVIASGQFSEDMIPTVGFNMRKVTKGNVTIKIWDIGGQPRFRSMWERYCRGVNAIVYMIDAADREKIEASRNELHNLLDKPQLQGIPVLVLGNKRDLPNALDEKQLIEKMNLSAIQDREICCYSISCKEKDNIDITLQWLIQHSKSRRS [ARL8B] | -0.0397 | -0.232 | -1.93 | -1.85 | 55.2 | 56 |
| MLCSLLLCECLLLVAGYAHDDDWIDPTDMLNYDAASGTMRKSQAKYGISGEKDVSPDLSCADEISECYHKLDSLTYKIDECEKKKREDYESQSNPVFRRYLNKILIEAGKLGLPDENKGDMHYDAEIILKRETLLEIQKFLNGEDWKPGALDDALSDILINFKFHDFETWKWRFEDSFGVDPYNVLMVLLCLLCIVVLVATELWTYVRWYTQLRRVLIISFLFSLGWNWMYLYKLAFAQHQAEVAKMEPLNNVCAKKMDWTGSIWEWFRSSWTYKDDPCQKYYELLLVNPIWLVPPTKALAVTFTTFVTEPLKHIGKGTGEFIKALMKEIPALLHLPVLIIMALAILSFCYGAGKSVHVLRHIGGPESEPPQALRPRDRRRQEEIDYRPDGGAGDADFHYRGQMGPTEQGPYAKTYEGRREILRERDVDLRFQTGNKSPEVLRAFDVPDAEAREHPTVVPSHKSPVLDTKPKETGGILGEGTPKESSTESSQSAKPVSGQDTSGNTEGSPAAEKAQLKSEAAGSPDQGSTYSPARGVAGPRGQDPVSSPCG [CLCC1] | -0.212 | -0.123 | -0.638 | 1.19 | 56 | 58.6 |
| MLCVGRLGGLGARAAALPPRRAGRGSLEAGIRARRVSTSWSPVGAAFNVKPQGSRLDLFGERRGLFGVPELSAPEGFHIAQEKALRKTELLVDRACSTPPGPQTVLIFDELSDSLCRVADLADFVKIAHPEPAFREAAEEACRSIGTMVEKLNTNVDLYQSLQKLLADKKLVDSLDPETRRVAELFMFDFEISGIHLDKEKRKRAVDLNVKILDLSSTFLMGTNFPNKIEKHLLPEHIRRNFTSAGDHIIIDGLHAESPDDLVREAAYKIFLYPNAGQLKCLEELLSSRDLLAKLVGYSTFSHRALQGTIAKNPETVMQFLEKLSDKLSERTLKDFEMIRGMKMKLNPQNSEVMPWDPPYYSGVIRAERYNIEPSLYCPFFSLGACMEGLNILLNRLLGISLYAEQPAKGEVWSEDVRKLAVVHESEGLLGYIYCDFFQRADKPHQDCHFTIRGGRLKEDGDYQLPVVVLMLNLPRSSRSSPTLLTPSMMENLFHEMGHAMHSMLGRTRYQHVTGTRCPTDFAEVPSILMEYFANDYRVVNQFARHYQTGQPLPKNMVSRLCESKKVCAAADMQLQVFYATLDQIYHGKHPLRNSTTDILKETQEKFYGLPYVPNTAWQLRFSHLVGYGARYYSYLMSRAVASMVWKECFLQDPFNRAAGERYRREMLAHGGGREPMLMVEGMLQKCPSVDDFVSALVSDLDLDFETFLMDSE [MIPEP] | -0.0439 | -0.0647 | 0.154 | 0.0672 | 51.2 | 50.4 |
| MLFNSVLRQPQLGVLRNGWSSQYPLQSLLTGYQCSGNDEHTSYGETGVPVPPFGCTFSSAPNMEHVLAVANEEGFVRLYNTESQSFRKKCFKEWMAHWNAVFDLAWVPGELKLVTAAGDQTAKFWDVKAGELIGTCKGHQCSLKSVAFSKFEKAVFCTGGRDGNIMVWDTRCNKKDGFYRQVNQISGAHNTSDKQTPSKPKKKQNSKGLAPSVDFQQSVTVVLFQDENTLVSAGAVDGIIKVWDLRKNYTAYRQEPIASKSFLYPGSSTRKLGYSSLILDSTGSTLFANCTDDNIYMFNMTGLKTSPVAIFNGHQNSTFYVKSSLSPDDQFLVSGSSDEAAYIWKVSTPWQPPTVLLGHSQEVTSVCWCPSDFTKIATCSDDNTLKIWRLNRGLEEKPGGDKLSTVGWASQKKKESRPGLVTVTSSQSTPAKAPRAKCNPSNSSPSSAACAPSCAGDLPLPSNTPTFSIKTSPAKARSPINRRGSVSSVSPKPPSSFKMSIRNWVTRTPSSSPPITPPASETKIMSPRKALIPVSQKSSQAEACSESRNRVKRRLDSSCLESVKQKCVKSCNCVTELDGQVENLHLDLCCLAGNQEDLSKDSLGPTKSSKIEGAGTSISEPPSPISPYASESCGTLPLPLRPCGEGSEMVGKENSSPENKNWLLAMAAKRKAENPSPRSPSSQTPNSRRQSGKKLPSPVTITPSSMRKICTYFHRKSQEDFCGPEHSTEL [DTL] | -0.00542 | -0.0846 | -1.36 | -1.25 | 50.4 | 50.1 |
